In PMC6783313 one finds stoichiometry N data, which are given here for one substance.

For this experiment, the target named is ClpP1(S98A) from Listeria monocytogenes (Listeria monocytogenes). Briefly: cryo-EM structure.

“ClpP1(S98A) from Listeria monocytogenes (natural protein)” returned a stoichiometry N of 7.
